According to patent publication US20220177583A1:
Substitutions are numbered along the chain they refer to. One block for each binder: values may come before it.

Columns and labels:
[1] = molecular target: CLDN3/4 endogenously expressed on LS513 and MCF7 cells; assay: FACS dose curve, labelled mAb, MCF7 cells
[2] = molecular target: CLDN3/4 endogenously expressed on LS513 and MCF7 cells; assay: FACS dose curve, labelled mAb, LS513 cells
[3] = molecular target: human CLDN6 fused to GFP, expressed on engineered HEK293T cells (human) (UniProt P56747); assay: FACS dose curve, labelled mAb, HEK293T-CLDN6-mGFP cells
[4] = molecular target: T1, mouse CLDN6 fused to GFP, expressed on engineered HEK293T cells (mouse) (UniProt Q9Z262); assay: FACS, 293T clone with mouse CLDN6
T1 sequence (looked up): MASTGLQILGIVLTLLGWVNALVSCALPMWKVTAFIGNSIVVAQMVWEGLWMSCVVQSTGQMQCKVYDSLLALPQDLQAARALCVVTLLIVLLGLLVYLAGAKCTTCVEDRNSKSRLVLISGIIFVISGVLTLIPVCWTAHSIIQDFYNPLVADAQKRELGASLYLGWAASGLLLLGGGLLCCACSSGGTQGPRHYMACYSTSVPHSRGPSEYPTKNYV

[5] = molecular target: human CLDN6 fused to GFP, expressed on engineered HEK293T cells (human) (UniProt P56747); assay: FACS, 293T clone with human CLDN6, 0.3 ug Ab
[6] = molecular target: human CLDN6 fused to GFP, expressed on engineered HEK293T cells (human) (UniProt P56747); assay: FACS, 293T clone with human CLDN6, 1.5 ug Ab
[7] = molecular target: human CLDN6 fused to GFP, expressed on engineered HEK293T cells (human) (UniProt P56747); assay: FACS on 293T CLDN6 mGFP Clone A11 cells, scFv followed by secondary antibody; number from the data table under the bars
[8] = molecular target: human CLDN6 fused to GFP, expressed on engineered HEK293T cells (human) (UniProt P56747); assay: KinExA 4000, cell-based equilibrium titration; Cell Model HEK293T CLDN6-mGFP A11, Cells Detached by Versene; Equilibrium Curves 500pM, 10nM

B2: AB12 (antibody, V domains shown)
VH: EVKLMESGGDLVKPGGSLKLSCAASGFTFSSYAMSWVRQTPEKRLEWVASIRSGGTTYYPDSVKGRFTISRDNARNILYLRMSSLRSEDTAIYYCAKVGGNPYPMDYWGQGTSVTVSS
VL: DIQMIQSPSSMFASLGDRVSLSCRASQDIGGNLDWYQQKPGGTIKLLIYSTSNLNSGVPSRFSGSGSGSDYSLTITSLESEDFADYYCLQRNAYPLTFGAGTKLELK
EC50 [1]: 5000 nM | EC50 [2]: 2270 nM | EC50 [3]: 5000 nM

B8: AB4-chim (antibody, V domains shown)
VH: QVQLQQSGAELARPGASVKMSCKASGYTFTSYTMHWIKQRPGQGQEWIGYINPSSTYTHYIKKFKDKATLTADKSSSTAYMQLRSLTSEDSAVYYCSRGELGGFAYWGQGTLVTVSA
VL: DVVMTQTPLSLPVSLGDQASISCRSSQSLVHSDGNTYLNWYLQKPGQSPKLLIYKVSNRFSGVPDRFSGSGSGTDFTLKIRRVEAEDLGVYFCSQSTHVPYTFGGGTKLEIK
FACS signal [4]: 3640 | FACS signal [5]: 176000 | FACS signal [6]: 327000

B9: AB1-11 scFv (scFv)
scFv: DIQLTQSPSSLSASVGDRVTMTCTASSSVSSTYFHWYQQKPGKAPKLWIYSTSNLASGVPSRFSGSGSGTDYTLTISSMQPEDAATYYCHQYHRSPLTFGQGTKLEIKGGGGSGGGGSGGGGSQVQLVQSGAEVKKPGASVKMSCKASGYTFTTYTMHWVRQAPGQGLEWIGFINPSSGYTDYAQKFQGRVTLTADKSTSTVYMELSSLRSEDTAVYYCANGDYYVAYWGQGTLVTVSS
FL4H Singlets in Viable cells [7]: 125000

B11: AB15 (antibody, V domains shown)
VH: DVQLVESGGGLVQPRGSRKLSCAASGFTFSSFGMHWVRQAPEKGLEWVAYISSDSRTIYYADTVKGRFTISRDNPTNTLFLQMTSLRSEDTAMYYCARDYGRTYEAYWGQGTLVTVSA
VL: NIMMTQSPSSLAVSAGEKVTMSCKSSQSVLFSSNQKNYLAWYQQKPGQSPRLLIYWASTRESGVPDRFTGSGSGTDFTLTISNVQAEDLAVYYCHQYLSSRTFGAGTKLELK
EC50 [1]: 5000 nM | EC50 [2]: 5000 nM | EC50 [3]: 5000 nM

B12: AB3-7 conjugated to MC-VC-PAB-MMAE (conventional) (antibody, V domains shown)
VH: EVQLLESGGGLVQPGGSMRLSCAASGFTFSNYWMNWVRQAPGKGLEWVAQIRLKSDNYATHYADSVKGRFTISRDDSKNTVYLQMNSLRAEDTGVYYCNDGPPSGSWGQGTLLTVSS
VL: DIQMTQSPSSLSASVGDRVTITCRISENIYSYLAWYQQKPGKAPKLLVYNAKILVEGVPSRFSGSGSGTDFTLTISSLQPEDFGTYYCQHHYTVPWTFGQGTKLEIK
modifications: MC-VC-PAB-MMAE conjugated to the antibody, heterogeneous (conventional); sites not stated
Kd [8]: 6.68 nM

B14: AB3-7 conjugated to MC-GGFG-DXD (antibody, V domains shown)
VH: B12 VH
VL: B12 VL
modifications: MC-GGFG-DXD conjugated to the antibody; sites not stated
Kd [8]: 3.01 nM

B18: AB3-7 (antibody, V domains shown)
VH: B12 VH
VL: B12 VL
FACS signal [5]: 106000 | FACS signal [6]: 169000 | Kd [8]: 1.13 nM

B19: AB3-7 conjugated to CL2A-SN38 (conventional) (antibody, V domains shown)
VH: B12 VH
VL: B12 VL
modifications: CL2A-SN38 conjugated to the antibody, heterogeneous (conventional); sites not stated
Kd [8]: 1.91 nM

B20: AB14 (antibody, V domains shown)
VH: QVQLQQSGPELVRPGVSVKISCKGSGYTFTDYAMHWVKQSHAKSLEWIGVISTYSGNTNYNQKFQDKATMTVDKSSSTAYMALARLTSDDSAIYYCARRGDYSLYAMDYWGQGTSVTVSS
VL: DIVLTQSPASLAVSLGQRATISCKASQSVDYDGDNYVNWYQQKVGQPPKLLISAASNLESGIPARFSGSGSGTDFTLNIHPVEEEDAATYYCQQSNEDPFTFGSGTKLEIK
EC50 [1]: 546 nM | EC50 [2]: 1160 nM | EC50 [3]: 5000 nM

B21: AB3-7 scFv (scFv)
scFv: DIQMTQSPSSLSASVGDRVTITCRISENIYSYLAWYQQKPGKAPKLLVYNAKILVEGVPSRFSGSGSGTDFTLTISSLQPEDFGTYYCQHHYTVPWTFGQGTKLEIKGGGGSGGGGSGGGGSEVQLLESGGGLVQPGGSMRLSCAASGFTFSNYWMNWVRQAPGKGLEWVAQIRLKSDNYATHYADSVKGRFTISRDDSKNTVYLQMNSLRAEDTGVYYCNDGPPSGSWGQGTLLTVSS
FL4H Singlets in Viable cells [7]: 132000

Other lines, results leading:

EC50 [1]: 5000 nM | EC50 [2]: 1590 nM | EC50 [3]: 5000 nM
B1: AB13 (antibody, V domains shown)
VH: QVQLQQSGAELVRPGTSVKVSCKASGYAFSNYLIEWVKQRPGQGLEWIGVINPGSGGTNYNEKFKGKATMTADKSSSTAYMHLSNLTSEDSVVYFCARSYFGRSYPYTMDYWGQGTSVTVSS
VL: EIVLTQSPTTMAASPGEKITITCSASSSISSNYLHWYQQKPGFSPKLLIYRTSNLASGVPARFSGSGSGTSYSLTIGTMEAEDVATYYCQQGSSIPLTFGAGTKLELK

EC50 [1]: 5000 nM | EC50 [2]: 5000 nM | EC50 [3]: 5000 nM
B3: AB18 (antibody, V domains shown)
VH: QVQLKQSGPELEKPGASVKISCKASGYSFTGYNMNWVKQSNGKSLEWIGNIDPYYGGSTYNQKFTGKATLTVDKSSSTAYMQLKSLTSEDSAVYYCARERSGYVFSAMDYWGQGTSVTVSS
VL: B11 VL

EC50 [1]: 5000 nM | EC50 [2]: 5000 nM | EC50 [3]: 5000 nM
B4: AB19 (antibody, V domains shown)
VH: EVQLQQSGPELVKPGGSMKISCKASGYSFTGYTMNWVKRSHGKNLEWIGLINPYNGVTTYNQNFKGKATLAVDKSSSTAYMELLGLTSEDSAVYYCTRDPLYYGYRDSTMDYWGQGTSVTVSS
VL: B11 VL

EC50 [1]: 5000 nM | EC50 [2]: 1040 nM | EC50 [3]: 2670 nM
B5: AB9 (antibody, V domains shown)
VH: EVQLQQSGPELVKPGASVKMSCKASGYRFTDYNMHWVKQSHGKSLEWIGYINPNNGGTNYNQNFKGKATLTVNKSSSTAYMELRSLTSEDSAAYYCARDYLYFFDCWGQGTTLTVSS
VL: DIQMTQSPASQSASLGESVTITCLASQTIGTWLAWYQQKPGKSPQLLIYAAASLADGVPSRFSGSGSGTRFSFKISSLQAEDFVSYYCQQLYSIPRTFGGGTKLEIK

EC50 [1]: 5000 nM | EC50 [2]: 5000 nM | EC50 [3]: 2650 nM
B6: AB17 (antibody, V domains shown)
VH: QVQLQQSGAELAKPGASVKMSCKASGYTFTGYWMHWVKQRPGQGLEWLGYINPSTGYTESNQKFKDKATLTADKSSTTAYMQLRSLTPEDSAVYYCAREGITTVLVDYWGQGTTLTVSS
VL: QIVLTQSPAIMSASLGERVTMTCTASSSVSSSYLHWYQQKPGSSPKLWIYSTSNLASGVPARFSGSGSGTSYSLTISSMEAEDAATYYCHQYHRSPPTFGAGTKLELK

EC50 [1]: 5000 nM | EC50 [2]: 1950 nM | EC50 [3]: 2760 nM
B7: AB10 (antibody, V domains shown)
VH: QIQLVQSGPALKKPGETVKISCKASGYTFTDYSMHWIKQAPGKGLKWMGWISTETGEPTYADGFKGRFDFSLETSADTAYLSINNLTNEDTATYFCTRGLWSSFAYWGQGTLVTVSA
VL: B8 VL with S25A, D33N, N39H, Y41F, G73R, R81S, S96I

EC50 [1]: 427 nM | EC50 [2]: 493 nM | EC50 [3]: 1700 nM
B10: AB11 (antibody, V domains shown)
VH: B11 VH
VL: DIVLTQSPASLAVSLGQRATISCRASKSVSTSGYSYIHWYQQKPGQPPKLLIYLASNLESGVPARFSGSGSGTDFTLNIHPVEEEDAATYYCQHSRELPLTFGAGTKLELK

Kd [8]: 1.01 nM
B13: AB3-7 conjugated to MC-GGFG-MMAE (D4 technology) (antibody, V domains shown)
VH: B12 VH
VL: B12 VL
modifications: MC-GGFG-MMAE conjugated to the antibody (D4); sites not stated

Kd [8]: 3.42 nM
B15: AB3-7 conjugated to MC-VC-PAB-DXD (antibody, V domains shown)
VH: B12 VH
VL: B12 VL
modifications: MC-VC-PAB-DXD conjugated to the antibody; sites not stated

Kd [8]: 2.87 nM
B16: AB3-7 conjugated to CL2A-SN38 (D4 technology) (antibody, V domains shown)
VH: B12 VH
VL: B12 VL
modifications: CL2A-SN38 conjugated to the antibody (D4); sites not stated

Kd [8]: 5.34 nM
B17: AB3-7 conjugated to MC-VC-PAB-MMAE (D4 technology) (antibody, V domains shown)
VH: B12 VH
VL: B12 VL
modifications: MC-VC-PAB-MMAE conjugated to the antibody, substantially 4 drugs per antibody (D4); sites not stated
